# Patent US20250136696A1 (HARBOUR BIOMED SHANGHAI, published 2025)
# Positions count from the first letter of the chain named. Numbers in names are those of the source.
# T1: human B7-H7 on the cell surface (human, UniProt Q9UM44 23-414)
# T1 construct: whole, on cells; also called hB7-H7; hu B7-H7
# T1 sequence (looked up): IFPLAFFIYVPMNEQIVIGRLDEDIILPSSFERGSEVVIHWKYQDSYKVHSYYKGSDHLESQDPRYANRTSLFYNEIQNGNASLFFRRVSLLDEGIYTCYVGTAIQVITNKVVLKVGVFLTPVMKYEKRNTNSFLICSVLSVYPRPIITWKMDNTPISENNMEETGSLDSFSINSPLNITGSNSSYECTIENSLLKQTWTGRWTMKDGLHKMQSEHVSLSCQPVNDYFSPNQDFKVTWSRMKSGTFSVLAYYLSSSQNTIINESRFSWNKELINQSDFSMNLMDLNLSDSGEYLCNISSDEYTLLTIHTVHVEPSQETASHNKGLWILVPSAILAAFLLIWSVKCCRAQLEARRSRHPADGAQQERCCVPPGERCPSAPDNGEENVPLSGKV
# T2: biotinylated human B7-H7 protein (Acro Biosystems, B77-H82F5) (human, UniProt Q9UM44 23-344, biotinylated)
# T2 construct: Bought soluble protein; also called biotin-B7H7 protein
# T2 sequence (looked up): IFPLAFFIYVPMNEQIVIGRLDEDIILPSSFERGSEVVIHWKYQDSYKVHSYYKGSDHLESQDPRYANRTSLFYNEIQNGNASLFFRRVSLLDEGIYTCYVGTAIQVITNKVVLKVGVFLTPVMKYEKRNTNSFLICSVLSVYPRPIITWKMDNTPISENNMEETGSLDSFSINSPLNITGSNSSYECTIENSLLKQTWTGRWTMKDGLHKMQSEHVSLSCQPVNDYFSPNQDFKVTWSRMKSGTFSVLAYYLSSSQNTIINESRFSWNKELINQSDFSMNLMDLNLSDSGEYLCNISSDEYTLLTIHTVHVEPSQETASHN
# T3: human B7-H7 recombinant protein (human, UniProt Q9UM44 23-344)
# T3 construct: also called human B7-H7 protein
# T3 sequence (looked up): T2 sequence (looked up)
# B1: PR003248 (antibody, human IgG1, kappa, V domains shown)
# VH: QVQLVESGGGVVQPGRSLRLSCAASGFTFSDYGLHWVRQAPGRGLEWVAVIWYDGSEEYYADSVKGRFTISRDNSKKSLYLQMNSLRAEDTAVYFCARDRNSGALGYFPHWGQGTLVTVSS
# VL: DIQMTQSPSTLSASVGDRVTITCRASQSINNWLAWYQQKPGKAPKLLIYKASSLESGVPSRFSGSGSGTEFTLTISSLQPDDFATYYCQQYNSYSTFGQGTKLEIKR
# notes: Human IgG1, fully human, from Harbour H2L2 mice; also called 13D8D2
# B2: PR003266 (antibody, human IgG1, kappa, V domains shown)
# VH: B1 VH with L34M, R43K, V50I, E57N, E58K, K77N, S78T, F95Y, N101S, P109Q
# VL: not shown
# notes: Human IgG1; also called 7D3D2
# B3: PR003250 (antibody, human IgG1, kappa, V domains shown)
# VH: QVQLVESGGGVVQPGRSLRLSCAASGFTFSDYGIHWVRQAPGKGLEWVAVIWYDGSDKYYADSVRGRFTISRDNSKNTLSLQMNSLRAEDTAVYYCARDRSSGAMGYFAYWGQGTLVTVSS
# VL: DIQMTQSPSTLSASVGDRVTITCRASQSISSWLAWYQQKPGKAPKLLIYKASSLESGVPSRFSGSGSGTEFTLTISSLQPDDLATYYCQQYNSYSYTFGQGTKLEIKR
# notes: Human IgG1; also called 34G2E6
# B4: PR003252 (antibody, human IgG1, kappa, V domains shown)
# VH: QVQLVESGGGVVQPGRSLRLSCAASGFTFSNYAMHWVRQVPGKGLEWVALIWYDGSEKYYADSVKGRFTISRDDSKNTLFLQMSSLRAEDTAVYSCVREYSSGWGYFDYWGQGTQVTVSS
# VL: DIQMTQSPSTLSASVGDRVTITCRASQSISSWLAWYQQKPGKAPKLLIYKASSLKSGVPSRFSGSGSGTEFTLTISSLQPDDFATYYCLQYNSYYTFGQGTKLEIKR
# notes: Human IgG1; also called 53C12D4
# B5: PR003261 (antibody, human IgG1, kappa, V domains shown)
# VH: QVQLVESGGGVVQPGRSLRLSCAASGFTFSNYGMHWVRQAPGKGLEWVAVIWYDGTNKNYADSVKGRFTISRDNSKNTLDLQMNSLRAEDTAVYFCARDRNTAMDYFVYWGQGTLVTVSS
# VL: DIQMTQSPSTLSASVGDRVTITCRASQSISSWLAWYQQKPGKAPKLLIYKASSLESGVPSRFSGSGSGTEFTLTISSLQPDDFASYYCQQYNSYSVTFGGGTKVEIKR
# notes: Human IgG1; also called 74A11E4
# B6: PR003265 (antibody, human IgG1, kappa, V domains shown)
# VH: QVQLVESGGGVVQPGRSLRLSCAASGFTFSTYGLHWVRQAPGKGLEWVAVIWYDESNEYYADSVKGRFTISRDNSKNTLYLQMNSLRAEDTALYYCARLAHDYGGTYFDYWGQGTLVTVSS
# VL: EIVMTQSPAILSVSPGERATLSCRASQSISYNLAWYQQKPGQAPRLLIYGASIRATGIPARFSGSGSGTDFTLTISSLQSEDFAVYYCQQYNNWPPWTFGQGTKVEIKR
# notes: Human IgG1; also called 78G8B3
# B7: PR004479 (antibody, human IgG1, kappa, L234A L235A, V domains shown)
# VH: B3 VH with D54E, A88V, A109V
# VL: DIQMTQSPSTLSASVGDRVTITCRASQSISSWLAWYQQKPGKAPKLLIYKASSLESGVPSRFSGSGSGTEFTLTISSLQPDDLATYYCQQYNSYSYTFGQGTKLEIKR
# notes: Variant of PR003249, H:D54E; Human IgG1 LALA; expressed supernatant only
# Biological target: T1, human B7-H7 on the cell surface
# Experiment: flow cytometry, HCC827 cells
# Method: (§1) This example was intended to study the in vitro activity of H2L2 monoclonal antibodies against human B7-H7 in binding to human/cynomolgus monkey B7-H7. Since homologous molecules of B7-H7 were not present in mice, the detection was not performed. […] The cells were adjusted to a cell density of 1×10⁶ cells/mL, respectively. The cells were seeded in a 96-well V-bottom plate (Corning, #3894) at 100 μL/well, and the antibody to be tested at 2× final concentration with 3-fold concentration gradient dilution was then added at 100 μL/well. The cells were incubated at 4° C. for 2 hours in the dark. After the incubation, the cells were rinsed twice by adding pre-chilled PBS containing 2% BSA at 100 μl/well, and centrifuged at 500 g at 4° C. for 5 minutes, and the supernatant was discarded. […] The cells were washed twice by adding pre-chilled PBS containing 2% BSA at 100 μL/well, and centrifuged at 500 g at 4° C. for 5 minutes, and the supernatant was discarded. Finally, the cells were resuspended in pre-chilled PBS containing 2% BSA at 200 μL/well, and the fluorescence signal values were read using an ACEA Novocyte3000 flow cytometer.
EC50 [nM],Maximum MFI [MFI],Binder
0.0399,68600,B1
0.0477,49300,B2
0.00294,68800,B3
,69400,B4
0.0445,60100,B5
0.0903,51800,B6

# Biological target: T1, human B7-H7 on the cell surface
# Experiment: flow cytometry, HEK-293/hu B7-H7 cells
# Method: as §1
EC50 [nM],Maximum MFI [MFI],Binder
1.81,981000,B1
0.663,531000,B2
0.995,823000,B3
1.04,837000,B4
0.941,723000,B5
1.24,824000,B6

# Biological target: T4, cynomolgus monkey B7-H7 on the cell surface (cynomolgus monkey)
# T4 construct: whole, on cells; also called cyno B7-H7
# Experiment: flow cytometry, HEK-293/cyno B7-H7 cells
# Method: as §1
EC50 [nM],Maximum MFI [MFI],Binder
8.51,698000,B1
0.211,170000,B2
0.399,405000,B3
0.429,414000,B4
0.326,275000,B5
0.711,451000,B6

# Biological target: T2, biotinylated human B7-H7 protein (Acro …)
# Experiment: flow cytometry, blocking of biotinylated human B7-H7 binding to HEK-293/CD28H cells
# Method: This example was intended to study the in vitro blocking activity of human anti-B7-H7 antibodies against the binding of human B7-H7 to its receptor CD28H. […] The cells were adjusted to a cell density of 1×10⁶ cells/mL. […] The cells were incubated at 4° C. for 1 hour in the dark. […] The cells were rinsed twice by adding pre-chilled PBS containing 2% BSA at 100 μL/well, and were centrifuged at 500 g at 4° C. for 5 minutes, and the supernatant was discarded. A fluorescent secondary antibody (PE Streptavidin, BD, Cat #: 554061, 1:200) was added at 100 μL/well, and the cells were incubated at 4° C. for 30 minutes in the dark. The cells were washed twice by adding pre-chilled PBS at 200 μL/well, and centrifuged at 500 g at 4° C. for 5 minutes, and the supernatant was discarded. Finally, the cells were resuspended in pre-chilled PBS at 200 μL/well, and the fluorescence signal values were read using an ACEA Novocyte3000 flow cytometer. IC50 was calculated.
IC50 [nM],Maximum inhibition rate (%),Binder
1.87,101,B1
1.57,101,B2
1.41,101,B3
1.43,101,B4
1.49,100,B5
1.39,102,B6

# Biological target: T2, biotinylated human B7-H7 protein (Acro …)
# Experiment: flow cytometry, blocking of biotinylated human B7-H7 binding to CHO-K1/KIR3DL3 cells
# From the text: This example was intended to study the in vitro blocking activity of human anti-B7-H7 antibodies against the binding of human B7-H7 to its receptor KIR3DL3. A CHO-K1 cell (CHO-K1/KIR3DL3, Harbour BioMed US, Inc.) overexpressing human KIR3DL3 was used in experiments at the cellular level where human B7-H7/human KIR3DL3 binding was blocked. Briefly, the CHO-K1/KIR3DL3 cells were digested and resuspended in PBS containing 2% BSA. The cells were adjusted to a cell density of 1×10⁶ cells/mL. […] The cells were incubated at 4° C. for 1 hour in the dark. […] The cells were rinsed twice by adding pre-chilled PBS containing 2% BSA at 100 μL/well, and were centrifuged at 500 g at 4° C. for 5 minutes, and the supernatant was discarded. A fluorescent secondary antibody (PE Streptavidin, BD, Cat #: 554061, 1:200) was added at 100 μL/well, and the cells were incubated at 4° C. for 30 minutes in the dark. The cells were washed twice by adding pre-chilled PBS at 200 µL/well, and centrifuged at 500 g at 4° C. for 5 minutes, and the supernatant was discarded. Finally, the cells were resuspended in pre-chilled PBS at 200 μL/well, and the fluorescence signal values were read using an ACEA Novocyte3000 flow cytometer. IC50 was calculated.
IC50 [nM],Maximum inhibition rate (%),Binder
12.9,99.3,B1
8.55,102,B2
8.49,97.2,B3
7.59,97.1,B4
7.5,105,B5
7.04,101,B6

# Biological target: T3, human B7-H7 recombinant protein
# Experiment: BLI (Octet), antibody captured on AHC sensor, human B7-H7 in solution, 1:1 global fit
# Method: The binding kinetics between antigen and antibody was analyzed using an Octet Red 96e (Fortebio) molecular interaction analyzer by biolayer interferometry (BLI) technology.
# For determining the affinity of antibodies for antigens, the rotary speed of the sensor was set at 1000 rpm. AHC sensors (Fortebio, #18-5060) placed in one column were first equilibrated in a test buffer for 10 minutes, and then used to capture the anti-B7-H7 antibodies at a capture height of 0.7 nm; and after being equilibrated in the buffer for 120 s, the AHC sensors bound to human B7-H7 (concentrations: 50-3.125 nM and 0 nM) with 2-fold gradient dilution for 180 s and dissociated for 300 s. The AHC sensors were finally regenerated by immersing in a 10 mM glycine-hydrochloric acid solution with pH 1.5 to elute the protein bound to the sensors.
# For data analysis using Octet Data Analysis software (Fortebio, version 11.0), 0 nM well was used as the reference well, reference subtraction was performed, “1:1 Global fitting” method was selected for data fitting, the kinetic parameters of the binding of the antigen to the antigen-binding protein were calculated, and the kₒₙ (1/Ms) value, kdis (1/s) value and KD (M) value were obtained.
Kd [nM],koff [s⁻¹],kon [M⁻¹ s⁻¹],Binder
1.6,0.00014,88000,B1
9.93,0.000648,65200,B2
2.91,0.000271,93200,B3
1.06,0.000132,125000,B4
4.6,0.000336,73000,B5
0.595,2.93e-05,49300,B6

# Biological target: T1, human B7-H7 on the cell surface
# Experiment: flow cytometry on LS180 cells, expression supernatant diluted 1:1, 1:10, 1:100
row,binding result,Binder
1,binds,B7

# Biological target: T2, biotinylated human B7-H7 protein (Acro …)
# Experiment: BLI epitope competition on SA-captured biotinylated B7-H7; competitor (first antibody) PR003249
# Method: Epitope competition experiments were performed on the anti-B7-H7 antibodies using the ForteBio Octet Red96e platform with the same experimental buffer as described above. […] After being equilibrated in a buffer for 120 s, the sensors were immersed in various antibodies diluted to 100 nM for 240 s, and the final signal of the antibody binding to B7-H7 was recorded as the 100% signal for that antibody. Second step, epitope competition experiment: B7-H7 was captured using SA sensors at a capture height of 0.25 nm. The sensors were immersed in a first antibody (concentration: 100 nM) for 240 s, then the SA sensors were immersed in a mixture of the first antibody and a second antibody (final concentration of both antibodies: 100 nM) for 240 s, and the difference in signals before and after immersing the sensors in the mixture of the two antibodies was recorded as the signal for that antibody as the second antibody. The inhibition rate was calculated by the following equation, […]
row,Competitive inhibition rate (%),Binder
1,108,B1
2,107,B2
3,103,B3
4,107,B4
5,111,B5
6,106,B6
